Measured values reported in US20030138894A1 (Human Genome Sciences, published 2003).
Positions of bridges follow the written chain, without caps; N, C: chain ends. No end group written: not given here.

B1: ACE-2 binding polypeptide EGNCFLIGPWCFEF (peptide)
peptide: EGNCFLIGPWCFEF
modifications: not fully specified (N-terminus, C-terminus, bridges); cysteine pairing not given here
B2: ACE-2 binding polypeptide YEDCIGHALFCMTF (peptide)
peptide: YEDCIGHALFCMTF
modifications: not fully specified (N-terminus, C-terminus, bridges); cysteine pairing not given here
B3: ACE-2 binding polypeptide FSPCKALRHSPWWVCPSG (peptide)
peptide: FSPCKALRHSPWWVCPSG
modifications: not fully specified (N-terminus, C-terminus, bridges); cysteine pairing not given here
B4: ACE-2 binding polypeptide YDNCLGLANLNFCFDF (peptide)
peptide: YDNCLGLANLNFCFDF
modifications: not fully specified (N-terminus, C-terminus, bridges); cysteine pairing not given here
B5: ACE-2 binding polypeptide DQNCFAMYCFEF (peptide)
peptide: DQNCFAMYCFEF
modifications: not fully specified (N-terminus, C-terminus, bridges); cysteine pairing not given here
B6: ACE-2 binding polypeptide DDHCEWASYWKWDLCLHD (peptide)
peptide: DDHCEWASYWKWDLCLHD
modifications: not fully specified (N-terminus, C-terminus, bridges); cysteine pairing not given here

Biological target: T1, FLAG-tagged ACE-2 target (human, UniProt Q9BYF1 18-740)
T1 construct: range 1-740; obtained from Human Genome Sciences, Inc; also called FLAG-ACE-2; tagged human ACE-2; not shown: FLAG tag
Assay: phage ELISA on FLAG-ACE-2
Procedure: Phage enriched from the third round of selection were screened by ELISA for strong ACE-2 binders. Immulon 2 96-well plates (Dynatech) were coated with streptavidin for 1 hour at 37° C. and subsequently coated with anti-FLAG antibody for 1 hour at room temperature. Half of the plates were further coated with FLAG-ACE-2 as the target plates, and the other half of the plates were coated with FLAG peptide as background plates. The amount of each protein or peptide coated was 100 ng per well. The coated plates were then incubated for 1 hour at room temperature with 1:2 diluted overnight phage cultures that were made by inoculating phage from individual plaques into bacterial host cells. After being washed 7 times with PBST, the plates were incubated with HRP-conjugated anti-M13 antibody (Pharmacia) for 1 hour at room temperature, washed 5 times, developed with TMB peroxidase substrate solution (Kirkegaad & Perry Laboratories, Gaithersburg, Md.), and read at 630 nm on an ELISA plate reader.

T1 sequence (Q9BYF1 18-740 limits assumed): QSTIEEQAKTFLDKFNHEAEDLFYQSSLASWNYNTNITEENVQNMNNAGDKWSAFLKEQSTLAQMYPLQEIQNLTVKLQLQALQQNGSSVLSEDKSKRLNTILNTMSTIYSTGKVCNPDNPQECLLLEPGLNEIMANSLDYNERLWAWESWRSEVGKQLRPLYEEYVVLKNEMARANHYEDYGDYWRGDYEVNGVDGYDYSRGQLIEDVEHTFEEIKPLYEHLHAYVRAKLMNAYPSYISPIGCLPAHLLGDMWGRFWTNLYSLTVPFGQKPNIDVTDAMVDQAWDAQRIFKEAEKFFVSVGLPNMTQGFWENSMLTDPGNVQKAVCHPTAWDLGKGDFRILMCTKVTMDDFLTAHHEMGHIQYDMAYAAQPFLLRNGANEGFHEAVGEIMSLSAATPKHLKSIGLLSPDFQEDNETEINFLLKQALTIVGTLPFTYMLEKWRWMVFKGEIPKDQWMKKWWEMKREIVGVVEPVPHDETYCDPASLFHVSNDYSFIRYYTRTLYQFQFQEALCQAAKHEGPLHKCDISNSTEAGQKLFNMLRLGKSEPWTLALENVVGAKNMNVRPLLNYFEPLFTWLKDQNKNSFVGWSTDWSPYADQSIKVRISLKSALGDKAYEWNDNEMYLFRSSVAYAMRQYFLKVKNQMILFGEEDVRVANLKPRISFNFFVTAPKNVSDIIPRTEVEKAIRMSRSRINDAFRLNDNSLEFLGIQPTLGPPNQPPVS

| binding result | Binder |
| --- | --- |
| binds | B1 |
| binds | B2 |
| binds | NDYCTVFTGALFCLDF (disulfide 4-13 (inferred); not fully specified (N-terminus, C-terminus)) [ACE-2 binding polypeptide NDYCTVFTGALFCLDF] |
| binds | YFACTNNDSYLFCLDF (not fully specified (bridges); cysteine pairing not given here) [ACE-2 binding polypeptide YFACTNNDSYLFCLDF] |
| binds | NHHCLEFSSFEYCFDF (not fully specified (bridges); cysteine pairing not given here) [ACE-2 binding polypeptide NHHCLEFSSFEYCFDF] |
| binds | SDYCVGNNAVTYCFDF (not fully specified (bridges); cysteine pairing not given here) [ACE-2 binding polypeptide SDYCVGNNAVTYCFDF] |
| binds | DDDCMMLPLTMFCFDF (not fully specified (bridges); cysteine pairing not given here) [ACE-2 binding polypeptide DDDCMMLPLTMFCFDF] |
| binds | NWNCLGTNELQFCLDF (not fully specified (bridges); cysteine pairing not given here) [ACE-2 binding polypeptide NWNCLGTNELQFCLDF] |
| binds | WEDCLWIGMMCVEF (not fully specified (bridges); cysteine pairing not given here) [ACE-2 binding polypeptide WEDCLWIGMMCVEF] |
| binds | DDVCENADFAWLGWCMHF (not fully specified (bridges); cysteine pairing not given here) [ACE-2 binding polypeptide DDVCENADFAWLGWCMHF] |
| binds | NLDCIYLQNHSYCFDF (not fully specified (bridges); cysteine pairing not given here) [ACE-2 binding polypeptide NLDCIYLQNHSYCFDF] |
| binds | GGQCGTSYLFCIDF (not fully specified (bridges); cysteine pairing not given here) [ACE-2 binding polypeptide GGQCGTSYLFCIDF] |
| binds | DNLCMSGGSFDYCFDF (not fully specified (bridges); cysteine pairing not given here) [ACE-2 binding polypeptide DNLCMSGGSFDYCFDF] |
| binds | DDYCFNISSYSYCFDF (not fully specified (bridges); cysteine pairing not given here) [ACE-2 binding polypeptide DDYCFNISSYSYCFDF] |
| binds | PNQCGVDIWALFCVDF (not fully specified (bridges); cysteine pairing not given here) [ACE-2 binding polypeptide PNQCGVDIWALFCVDF] |
| binds | LHDCFIYADYEYCFDF (not fully specified (bridges); cysteine pairing not given here) [ACE-2 binding polypeptide LHDCFIYADYEYCFDF] |
| binds | HIECEEWGYWCIEM (not fully specified (bridges); cysteine pairing not given here) [ACE-2 binding polypeptide HIECEEWGYWCIEM] |
| binds | B3 |
| binds | HLDCYNLVDNMFCFDF (not fully specified (bridges); cysteine pairing not given here) [ACE-2 binding polypeptide HLDCYNLVDNMFCFDF] |
| binds | DFGCNAMFCVEF (not fully specified (bridges); cysteine pairing not given here) [ACE-2 binding polypeptide DFGCNAMFCVEF] |
| binds | DDVCYSLIMADYCLDF (not fully specified (bridges); cysteine pairing not given here) [ACE-2 binding polypeptide DDVCYSLIMADYCLDF] |
| binds | B4 |
| binds | NPECGALFCMEF (not fully specified (bridges); cysteine pairing not given here) [ACE-2 binding polypeptide NPECGALFCMEF] |
| binds | KFECMPSSLFCVDF (not fully specified (bridges); cysteine pairing not given here) [ACE-2 binding polypeptide KFECMPSSLFCVDF] |
| binds | B5 |
| binds | B6 |
| binds | YNFCMLIGERDYCLDF (not fully specified (bridges); cysteine pairing not given here) [ACE-2 binding polypeptide YNFCMLIGERDYCLDF] |
| binds | YSGCADMYMFCIDF (not fully specified (bridges); cysteine pairing not given here) [ACE-2 binding polypeptide YSGCADMYMFCIDF] |
| binds | DDKCFGWAHFCFDF (not fully specified (bridges); cysteine pairing not given here) [ACE-2 binding polypeptide DDKCFGWAHFCFDF] |
